20 sequences from the DeepSol protein solubility set can be followed below.

This data set can be described thus: soluble on expression in E. coli; label from the status in PepcDB or PDB records.
Consider “MTAQTLYDKLWNSHVVREEEDGTVLLYIDRHLVHEVTSPQAFEGLKMAGRKLWRIDSVVSTADHNTPTGDWDKGIQDPISKLQVDTLDKNIKEFGALAYFPFMDKGQGIVHVMGPEQGATLPGMTVVCGDSHTSTHGAFGALAHGIGTSEVEHTMATQCITAKKSKSMLISVDGKLKAGVTAKDVALYIIGQIGTAGGTGYAIEFGGEAIRSLSMESRMTLCNMAIEAGARSGMVAVDQTTIDYVKDKPFAPEGEAWDKAVEYWRTLVSDEGAVFDKEYRFNAEDIEPQVTWGTSPEMVLDISSKVPNPAEETDPVKRSGMERALEYMGLEAGTPLNEIPVDIVFIGSCTNSRIEDLREAAAIAKDRKKAANVQRVLIVPGSGLVKEQAEKEGLDKIFIEAGFEWREPGCSMCLAMNADRLTPGQRCASTSNRNFEGRQGNGGRTHLVSPAMAAAAAVTGRFTDIRMMA”, for which the “soluble on expression in E. coli” value is “not soluble”. Next, “MTAVRDPFFPADQSIRASHNPIEVRELGMMDYQRAWDLQAELNKQRQHDEINDVILVLEHPSIYTAGKRTQPSDRPQNGLPVIDVDRGGRITWHGPGQLVMYPIIKLAEPIDVVDYVRRVEEALIHVIRTHGIPNAGRIDGRSGVWVPGKTPEEHRKVAALGIRIAGGVTMHGLALNCDNTVEFYDYIVPCGISDAGVTTMSQEVGNDVTTQSMTAPLLAALDDAFAGRLVVADHSFASAPDPTKIPRRP”: “not soluble”. The result for “MTAVVSNREEDSMNNEPSLSGRAIIGLIYPPPDIRTIVDKTARFAAKNGVDFENKIREKEAKNPKFNFLSITDPYHAYYKKMVYDFSEGRVEAPKVPQAVKEHVKKAEFVPSAPPPAYEFSADPSTINAYDLDLIRLVALFVARNGRQFLTQLMTREARNYQFDFLKPAHCNFTYFTKLVDQYQKVLVPSTNVVAQLQDDATNKKRLIEDINYRVSWEKHQKGLKDREEAEAEKERQAYASIDWHDFVVVQTVDFQPGDTSQLPPLCTPKDVGARILLEARNEMQKAAAEMQEMDMEESDSDDEDAVQAPEAPAFTAPLPPTKQKDVIVRDYDPKRNVTQKPKAVENWIISPLTGERIPSDKLAEHVRYNTVDSQYKEDRDRHIGERSTEEPVLALGADISRNLGNFAERRTDIFGVGGEQTMIGKKLGEEDNSQQGQNKLIWDGTEETRDMITRAVQNKVTLDQQINEIHRQHGFVADPSKEKIGAQQVPRHQSTQGNVTITQGITNIPGQMPSGWPPVPPMGMPGMPNQALPPIRQMDFGGGPPAKRPRTEDDLIPEADWLKKVNGAISLNVHLPQAPEHGMDGSIVQFTIQVTAPMSELKQQIQDRYGMPVGKQKLMSDGLFVKDNMSSAFYNLADRTAIYLQVKERGGKKK” reads “not soluble”; that for “MTCFKIRLSKQPLKGRTMNKPFITQAQLALYKYQPSSKYYGKTMAYTFASELLDYSKVNKFIIHEEIQCFLNRRISNNIWKIYFSDESVAYIKILELQDDYSRGIEIKTFDFNPNVGDVFG”, “not soluble”. As to “MTDHALLLVNLGSPASTQVADVRSYLNQFLMDPYVIDIPWPLRRLLVSLILIKRPEQSAHAYASIWWDEGSPLVVLSKRLQQAMKKEWSHGPVELAMRYGEPSIETVLTRLSEQGFKKVTLAPLYPQFADSTVTTVIEEAKRVVRAKSLKMQFSVLQPFYDQPEYVSALVESVRPHLEQPYDHLLLSFHGLPERHLHKRDPTGKHCLKDDCCMTAPAQVVATCYRAQCLQSAAAFAKRMGIPDGKWSVSFQSRLGRAKWIEPYTEARLDELAAQGVKKLLVMCPAFVADCIETLEEIGDRGAEQFKEAGGEELILVPCLNDDPNWAKELNRLCERAPLML”, the “soluble on expression in E. coli” value is “not soluble”. The result for “MTDKLPLALFLMGPTASGKTELAIRLRQKFPVEIISVDSALIYKGMDIGTAKPDERELSLAPHRLIDILDPSESYSAADFRRDALQAMDDIVAEGKIPLLVGGTMLYYKALLEGLSPLPAANPEIRQQIEQEALTKGWSVLHDELKEIDPVSAARIHPNDPQRLSRALEVYRISGKTLTELTQTKGESLPYRVKQFAIAPKDRAELHRRIELRFDKMMEAGFEEEMKALYARKDLHPDLPSIRCVGYRQMWEYLDGECTRDEAVFRGVCATRQLAKRQITWLRSWDDLTWLDSDNIEQALETMSEAIASDLEHHHHHH” reads “soluble”; that for “MTDKWLDTINWSADGLIPAIAQDKNNGKILMVAWMNREALKRTVESGEAVYWSRSRKKLWHKGEESGHTQKISAIHLDCDEDILLLSVEQKGGIACHTGRQSCFFRQLKNGEWVVTEPVIKDPSQIYTK”, “not soluble”; that for “MTDLEVSVDDLVKLLSPTMSLIVRRKTMEVVTQLGTPLDGSAGKYFQAQDFALGKAICQLCEATSSDRTETLAALTNFTSGSIEAADFVLDKSKCVEIAYTAVVTNALYSSVASRLLVNVSRHFPDRVDHKLKARNANYIGQLLNEIKKSVETGDEDRAKFVGFTVVNLSVLPPIRQNIVQGGENESSPPSTTMKLLPIVCELLTTAETTEIRECAADVLRNLAFDDSLHGSLLDTSDEYLCSILAPLMDVNDNLDEEEIAKLPVRLQYYEKERDSSDIVRQKLIEALFQLCATKHGREVLRAKGVYPAMRELDKGTETAEDKHKKTLLSSQQEHTLHALIGILIRYESEMDVDPELSSIRELGTSEVTEITKTS”, “not soluble”.

Turning to “MTDLIHRPRRLRKSAALRAMFEETTLSLNDLVLPIFVEEELDDYKAIDAMPGVMRIPEKQLAREIERIANAGIRSVMTFGISHHTDDTGSDTWKEDGLVARMSRICKQTVPEMIVMSDTCFCEYTSHGHCGVLCEHGVDNDATLANLGKQAVIAAAAGADFIAPSAAMDGQVQAIRQALDAAGFTDTAIMSYSTKFASSFYGPFREAAGTALKGDRKTYQMNPMNRREAIRESLLDEAQGADCLMVKPAGAYLDVLREIRERTELPLGAYQVSGEYAMIKFAAMAGAIDEEKVVLESLGSIKRAGADLIFSYFALDLAEKNILR”, the “soluble on expression in E. coli” value is listed as “not soluble”. Next, “MTDNITDEAIIDKAQELHDKAYDKAVYERDEANGVHANQNNPEVLIFNDGPTDDEIREKLSWVVDRFRETLKPFPRDFDPLIDKIKAIEAAFGQEEDSFGDPDLGMIETSANYMAQWEGALSTNFNEKFLGPMPIIAANHGKLASYLRDHAEKMKSIYESGRQDALNIAEKGVEAIDAINDSNGKDLMIALAVLIAAGTLAGPALGVASAPLAVQLANAAVIAGSVLGGPFVEKGEEVPLGGDTVEEVMNNVRDALDASAKRIFEEEGYLLDALKKSEEEVFPQTSGNTDDHTALLPQQPKVFTATGEELTAGLVQFGSEDGTDGGGGDRGSYVGDDPPDNFEGSVFVPPEKKTATG”: “not soluble”; “MTDQERIELQKNNPLHGLKLETLLQELVDFYGWDILDTAMRFNCFHTKPSIASSVKYLNKTEWAREKLENFYLYRFKRMPRASSEEFTLPPRARTFPHGLHPKEPMALTVDSILKSQAKAASAHKERTSRSRYNQR”: “not soluble”; “MTDSTIRIAIVGAGGRMGRQLIQAVTQMEGVVLGAAIERKGSTLVGSDAGELAGVGLLNVIVGDDLSQLTDNFDVLIDFTRPEGTLEHLAICRQHRKAMVIGTTGFDEAGKAAISEAAADIGIVFAANFSVGVNVVLKLLEKAAKVMGDYTDIEIIEAHHRHKVDAPSGTALAMGEAIADAMGRSLKDCAVYSREGYTGERKPGTIGFATVRAGDIVGEHTAMFADIGERVEITHKATSRMTFAHGAVKSAIWLGKHDNGLFDMRDVLNLNEL”: “soluble”. The result for “MTDVARLLALRSFTELGARQRARALLDAGSFRELLDPFAGVQSPWLERQGIVPQADDGVVVARGLLDGQPAVLAAIEGAFQGGSLGEVSGAKIAGALELAAEDNRNGVPTRALLLLETGGVRLQEANLGLAAIAEIQAAIVDLQRYQPVVAVIAGPVGCFGGMSIAAGLCSYVLVTREARLGLNGPQVIEQEAGIAEYDSRDRPFIWSLTGGEQRFASGLADAYLADDLDEVRTSVLAYFAKGLPARPRCRRAEDYLRRLGDLDTAEQPDAAGVRRLYQGLGQGDAT” reads “not soluble”; that for “MTEAKIVDISSKDIVLREAVVEGYIKLRKETIEKIKNKEVEKGDVITVAKTAGILAAKKTPELIPMCHPIPLEFVDVEIKIEEEGLRVISTVKAHYKTGVEMEALTATSVALLTIWDMVKKYEKDENGQYPYTEIKSIRVINKIKTYDDMK”, “soluble”; that for “MTEHSLWRFSRALHRALNDRQTEELATIIDDNIDWAIYGPIDMFPFFGARQGKAAVLEVCRQIADSVRIYRYHRESVMLGIDSAASMVRYSLTAAGTNRPISVRMALFTQFQNGRLTNLRMVLDTFDLVEQALGRPIHLPKIA”, “soluble”. The result for “MTEKSLKLFIVLSRAYRSINDHMNKHIHKHGLNPTEFAVLELLYHKGDQPLQQIGDKILLASGSITYVVDKLEQKELLIRKASPTDRRVTFAQITEKGIGLLNDIFPDHAAEIDEMISVLSEEEVEMCTEMLKRVGLNAKQFHNK” reads “not soluble”; that for “MTESTFPQYPRLVLSKGREKSLLRRHPWVFSGAVSRLEGKANLGETIDIVDHQGKWLARGAWSPASQIRARVWTFDKAESIDIAFFTRRLRQAQQWRDWLAKKDGLDSYRLIAGESDGLPGVTIDRFGHFLVLQLLSAGAEYQRAALISALQTCYPDCAIYDRSDVAVRKKEGMALTQGPVTGELPPALLPIEEHGMKLLVDIQGGHKTGYYLDQRDSRLATRRYVENQRVLNCFSYTGGFAVSALMGGCRQVVSVDTSQDALDIARQNVELNQLDLSKAEFVRDDVFKLLRAYREHGEKFDVIIMDPPKFVENKSQLMGACRGYKDINMLAIQLLNPGGILLTFSCSGLMTSDLFQKIIADAAIDAGRDVQFIEQFRQAADHPVIATYPEGLYLKGFACRVM”, “not soluble”. Take “MTETATARRSRITPEREAELYEAVLDLLREVGYDALTMDAVAARTRSSKATLYRQWGGKPELVVKAIRHNKPGEIGDVDTGSLRGDLHALMVREDDCTMEQNSALMRGVAMALHQNPDLRQAFREQLIEPEMAEFQRVLQRAVDRGEIRADCPALDFLVHMMVGGFATRTLLDDQPPTREFLASYIDAVILPALGVSTH”: the “soluble on expression in E. coli” value was “not soluble”. For the sequence “MTETIKCIGCGVEIQTEDKNEVGYAPASSLEKEQVICQRCFRLKHYNEIQDVSLTDDDFLRILNGIGKSDALVVKIVDIFDFNGSWLPGLHRFVGNNKVLLVGNKADLIPKSVKHDKVKHWMRYSAKQLGLKPEDVFLISAAKGQGIAELADAIEYYRGGKDVYVVGCTNVGKSTFINRMIKEFSDETENVITTSHFPGTTLDLIDIPLDEESSLYDTPGIINHHQMAHYVGKQSLKLITPTKEIKPMVFQLNEEQTLFFSGLARFDYVSGGRRAFTCHFSNRLTIHRTKLEKADELYKNHAGDLLSPPTPEELENMPELVKYEFNIREPKTDVVFSGLGWVTVNEPGAKIVAHVPKGVSVSLRKSLI”, the “soluble on expression in E. coli” value is given as “soluble”. Next, “MTEVILFFFATPKRATFSLELTSMKKLATLLAGSACALSLLSGTAAAEDKELVFMNWGPYINSGILEQFTKETGIKVIYSTYESNETLYAKLKTHNQGYDLVVPSTYFVAKMRDEGMLQKIDKSKLSNFKNLDSNYLDKPYDPNNDYSIPHVVAITGLAVNTDMYDPNDFQSWGDLWKPELKGQLMLMDDTREVFHIALRKLGYSGNSTDDKQIDEAYAELQKLMPNVLVFNSDNPAAPYLSGEVGLGMLWNGSAAAAQKEGLPIKLVFPKEGGIGWVDNFAISSGAKNVDAAHKMIDFLLRPEIAEQISRDTGYLTGVKASNDKFQDVAPLFPSQEDLDRVEWQSAVGDKTVKYEEYFMKLKAGQ”: “not soluble”.
